Test results from the supplement of paper PMC9112550, “Optimization of the antimicrobial peptide Bac7 by deep mutational scanning” (BMC Biology, 2022).

Tested on: Escherichia coli TOP10
Assay: shrunken log2 fold change of peptide-encoding DNA abundance (4.5 h post-induction vs induction); higher = less antimicrobial activity (less host growth inhibition)
Details: time post-induction: 4.5 h; library: site-saturation at positions 5, 18, 19, 20
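Note: peptides expressed intracellularly from a pBAD plasmid library in pooled LB shake-flask culture, induced with 0.3% L-arabinose, DNA abundance read by NGS, three biological replicates, DESeq2 with apeglm shrinkage.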

Sequence | shrunken log2 fold change
RRIRLRPPRLPRPRPRPCKSPRP | -0.264
RRIRLRPPRLPRPRPRPCLRPRP | -0.0817
RRIRLRPPRLPRPRPRPCLTPRP | -0.304
RRIRLRPPRLPRPRPRPCMFPRP | -0.431
RRIRLRPPRLPRPRPRPCMVPRP | -0.365
RRIRLRPPRLPRPRPRPCMWPRP | -0.0832
RRIRLRPPRLPRPRPRPCPFPRP | -0.353
RRIRLRPPRLPRPRPRPCPMPRP | -0.444
RRIRLRPPRLPRPRPRPCPQPRP | -0.391
RRIRLRPPRLPRPRPRPCRWPRP | 0.252
RRIRLRPPRLPRPRPRPCVKPRP | 0.00159
RRIRLRPPRLPRPRPRPCVWPRP | -0.0182
RRIRLRPPRLPRPRPRPCYLPRP | -0.856
RRIRLRPPRLPRPRPRPDAMPRP | 0.224
RRIRLRPPRLPRPRPRPDCEPRP | 0.0566
RRIRLRPPRLPRPRPRPDCFPRP | 0.19
RRIRLRPPRLPRPRPRPDDVPRP | -0.00776
RRIRLRPPRLPRPRPRPDEFPRP | 0.0159
RRIRLRPPRLPRPRPRPDETPRP | -0.0184
RRIRLRPPRLPRPRPRPDFAPRP | 0.0202

Sequence | shrunken log2 fold change
RRIRLRPPRLPRPRPRPDFCPRP | -0.0853
RRIRLRPPRLPRPRPRPDHIPRP | -0.221
RRIRLRPPRLPRPRPRPDHMPRP | -0.0422
RRIRLRPPRLPRPRPRPDHVPRP | -0.00963
RRIRLRPPRLPRPRPRPDICPRP | -0.102
RRIRLRPPRLPRPRPRPDIDPRP | 0.0249
RRIRLRPPRLPRPRPRPDIHPRP | 0.126
RRIRLRPPRLPRPRPRPDKVPRP | -0.0274
RRIRLRPPRLPRPRPRPDLNPRP | -1.09
RRIRLRPPRLPRPRPRPDLQPRP | -0.0184
RRIRLRPPRLPRPRPRPDMHPRP | 3.46
RRIRLRPPRLPRPRPRPDNEPRP | -0.162
RRIRLRPPRLPRPRPRPDNVPRP | 0.0219
RRIRLRPPRLPRPRPRPDPCPRP | -0.0403
RRIRLRPPRLPRPRPRPDQQPRP | -0.174
RRIRLRPPRLPRPRPRPDRIPRP | -0.123
RRIRLRPPRLPRPRPRPDRQPRP | 0.00462
RRIRLRPPRLPRPRPRPDSDPRP | -0.0524
RRIRLRPPRLPRPRPRPDSIPRP | -0.0883
RRIRLRPPRLPRPRPRPDTPPRP | 0.0881

Sequence | shrunken log2 fold change
RRIRLRPPRLPRPRPRPDVAPRP | 0.093
RRIRLRPPRLPRPRPRPDWAPRP | 0.0283
RRIRLRPPRLPRPRPRPDWFPRP | -0.173
RRIRLRPPRLPRPRPRPDWWPRP | 0.0919
RRIRLRPPRLPRPRPRPEAIPRP | 0.0246
RRIRLRPPRLPRPRPRPEALPRP | -0.00171
RRIRLRPPRLPRPRPRPEARPRP | 0.142
RRIRLRPPRLPRPRPRPEDLPRP | 0.14
RRIRLRPPRLPRPRPRPEDYPRP | -0.0202
RRIRLRPPRLPRPRPRPEFAPRP | 0.342
RRIRLRPPRLPRPRPRPEFDPRP | 0.31
RRIRLRPPRLPRPRPRPEGAPRP | 0.552
RRIRLRPPRLPRPRPRPEGIPRP | -0.229
RRIRLRPPRLPRPRPRPEGMPRP | 0.194
RRIRLRPPRLPRPRPRPEHCPRP | 0.0119
RRIRLRPPRLPRPRPRPEHHPRP | -0.156
RRIRLRPPRLPRPRPRPEHPPRP | -0.00635
RRIRLRPPRLPRPRPRPEHSPRP | -0.0185
RRIRLRPPRLPRPRPRPEICPRP | -0.0881
RRIRLRPPRLPRPRPRPEKGPRP | 0.693
